27 molecules from patent publication US20170342144A1 (Sanofi, published 2017) can be followed below.

Residue numbers refer to the chain shown, from its start.

T1: human TGFβ2 (human, UniProt P61812 303-414)
T1 construct: also called TGFβ2 homodimer
T1 sequence: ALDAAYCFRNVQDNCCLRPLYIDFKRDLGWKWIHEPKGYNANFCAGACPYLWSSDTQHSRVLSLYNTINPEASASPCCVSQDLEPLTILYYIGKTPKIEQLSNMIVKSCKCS

T2: human TGFβ3 (human, UniProt P10600 301-412)
T2 sequence: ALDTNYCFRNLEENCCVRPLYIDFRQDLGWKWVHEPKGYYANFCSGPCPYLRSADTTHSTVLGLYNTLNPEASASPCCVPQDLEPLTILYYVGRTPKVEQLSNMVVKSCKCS

B1: I54L (antibody, V domains shown)
VH: QVQLVQSGAEVKKPGSSVKVSCKASGYTFSSNVISWVRQAPGQGLEWMGGVIPLVDIANYAQRFKGRVTITADESTSTTYMELSSLRSEDTAVYYCASTLGLVLDAMDYWGQGTLVTVSS
VL: ETVLTQSPGTLSLSPGERATLSCRASQSLGSSYLAWYQQKPGQAPRLLIYGASSRAPGIPDRFSGSGSGTDFTLTISRLEPEDFAVYYCQQYADSPITFGQGTRLEIK
notes: GC1008 IgG4 variant
B2: I54M (antibody, V domains shown)
VH: B1 VH with L54M
VL: B1 VL
notes: GC1008 IgG4 variant
B3: I54V (antibody, V domains shown)
VH: B1 VH with L54V
VL: B1 VL
notes: GC1008 IgG4 variant
B4: S30I (antibody, V domains shown)
VH: B1 VH with S30I, L54I
VL: B1 VL
notes: GC1008 IgG4 variant
B5: S30L (antibody, V domains shown)
VH: B1 VH with S30L, L54I
VL: B1 VL
notes: GC1008 IgG4 variant
B6: N32S (antibody, V domains shown)
VH: B1 VH with N32S, L54I
VL: B1 VL
notes: GC1008 IgG4 variant
B7: N32G (antibody, V domains shown)
VH: B1 VH with N32G, L54I
VL: B1 VL
notes: GC1008 IgG4 variant
B8: N32M (antibody, V domains shown)
VH: B1 VH with N32M, L54I
VL: B1 VL
notes: GC1008 IgG4 variant
B9: S30G (antibody, V domains shown)
VH: B1 VH with S30G, L54I
VL: B1 VL
notes: GC1008 IgG4 variant
B10: S30C (antibody, V domains shown)
VH: B1 VH with S30C, L54I
VL: B1 VL
notes: GC1008 IgG4 variant
B11: N32R (antibody, V domains shown)
VH: B1 VH with N32R, L54I
VL: B1 VL
notes: GC1008 IgG4 variant
B12: N32Q (antibody, V domains shown)
VH: B1 VH with N32Q, L54I
VL: B1 VL
notes: GC1008 IgG4 variant
B13: N59Y (antibody, V domains shown)
VH: B1 VH with L54I, N59Y
VL: B1 VL
notes: GC1008 IgG4 variant
B14: N32D (antibody, V domains shown)
VH: B1 VH with N32D, L54I
VL: B1 VL
notes: GC1008 IgG4 variant
B15: N32W (antibody, V domains shown)
VH: B1 VH with N32W, L54I
VL: B1 VL
notes: GC1008 IgG4 variant
B16: N32L (antibody, V domains shown)
VH: B1 VH with N32L, L54I
VL: B1 VL
notes: GC1008 IgG4 variant
B17: S30F (antibody, V domains shown)
VH: B1 VH with S30F, L54I
VL: B1 VL
notes: GC1008 IgG4 variant
B18: N32P (antibody, V domains shown)
VH: B1 VH with N32P, L54I
VL: B1 VL
notes: GC1008 IgG4 variant
B19: N32T (antibody, V domains shown)
VH: B1 VH with N32T, L54I
VL: B1 VL
notes: GC1008 IgG4 variant
B20: I54P (antibody, V domains shown)
VH: B1 VH with L54P
VL: B1 VL
notes: GC1008 IgG4 variant
B21: P53I (antibody, V domains shown)
VH: B1 VH with P53I, L54I
VL: B1 VL
notes: GC1008 IgG4 variant
B22: N32V (antibody, V domains shown)
VH: B1 VH with N32V, L54I
VL: B1 VL
notes: GC1008 IgG4 variant
B23: N32A (antibody, V domains shown)
VH: B1 VH with N32A, L54I
VL: B1 VL
notes: GC1008 IgG4 variant
B24: S30D (antibody, V domains shown)
VH: B1 VH with S30D, L54I
VL: B1 VL
notes: GC1008 IgG4 variant
B25: N32Y (antibody, V domains shown)
VH: B1 VH with N32Y, L54I
VL: B1 VL
notes: GC1008 IgG4 variant
B26: N59R (antibody, V domains shown)
VH: B1 VH with L54I, N59R
VL: B1 VL
notes: GC1008 IgG4 variant
B27: L104W (antibody, V domains shown)
VH: B1 VH with L54I, L104W
VL: B1 VL
notes: GC1008 IgG4 variant

The first test deals with T1, human TGFβ2. Nature of the test: Biacore off-rate vs wt GC1008, 50 nM. From the text:
(§1) Plasmids encoding either the GC1008 heavy chain or light chain were used as a template in PCR-based mutagenesis reactions. Mutations to the encoding DNA were made to create 155 single amino acid substitutions of the encoded heavy chain amino acid sequence and one single amino acid substitution of the encoded light chain amino acid sequence. A QuikChange® Lightning Site-Directed Mutagenesis kit (Agilent Technologies, Santa Clara Calif.) was used according to the manufacturer's instructions to create DNA mutations using a set of forward and reverse primers, either designed for a specific amino acid or for all 20 amino acids with a degenerate codon (NNK). After sequencing confirmation, identified mutant DNA was paired with a wild-type light or heavy chain DNA for transfection into an Expi293F™ host cell suspension (Life Techonologies Corp., Grand Island, N.Y.). At 4 days post-transfection, conditioned media (1 mL) was harvested and purified using a 1 mL Protein A PhyTip® column (PhyNexus, Inc., San Jose, Calif.) and a PureSpeed™ 12-channel pipette (Rainin Instrument LLC, Oakland, Calif.). Purified variant antibody samples were analyzed in duplicate on a Biacore® 3000 (GE Healthcare) at 50 nM concentrations, using the 100 RU level TGFβ1, 2, and 3 immobilized surfaces. The off-rate (kd) of the variants was divided by the kd of the wild-type control to obtain the fold change in the kd. […] A heat map was generated to visualize the results. Variants that completely lost affinity for TGFβ were shown in red without numbers.
A general note: In SPR one partner is held on a chip, and binding of the other changes the refractive index at the surface.
B1 displayed a kd var/kd wt of 1.1.
On the same count and under the same terms, in the case of B2 it was 1.3; in that of B3, 1.
B4 showed a kd var/kd wt of 1.1.
Take B5: the kd var/kd wt came to 1.
On the same count and under the same terms, in the case of B6 it was 1.3; in that of B7, 1.2.
On the same count and under the same terms, with B8 the figure was 1.3.
B9: the kd var/kd wt is 0.7.
Consider B10, for which the kd var/kd wt is 1.1.
The same measure, in the same setting: with B11 the figure was 1.2; with B12, 0.8; with B13, 1.1.
As to B14, the kd var/kd wt was determined as 1.4.
For B15, the kd var/kd wt is 1.2.
On to B16, for which the kd var/kd wt was 1.3.
Same read-out and setting: in the case of B17 it was 0.9; in that of B18, 1.1; in that of B19, 1.2.
B20: the kd var/kd wt was determined as 1.3.
The same measure, in the same setting: in the case of B21 it was 1.6.
B22 registered a kd var/kd wt of 1.1.
B23 came in with a kd var/kd wt of 1.4.
The same measure, in the same setting: with B24 the figure was 1.2; with B25, 1.2.
Still for that read-out and setting: with B26 the figure was 1.1; with B27, 2.9.

The next test addresses T2, human TGFβ3. Nature of the test: Biacore off-rate vs wt GC1008, 50 nM.
Description: as §1
Consider B1, for which the kd var/kd wt worked out at 1.1.
Still for that read-out and setting: with B2 the figure was 1.7.
Take B3: the kd var/kd wt turned out to be 0.8.
The same measure, in the same setting: in the case of B4 it was 1.1; in that of B5, 1.
With B6, the kd var/kd wt amounted to 1.2.
With B7, the kd var/kd wt amounted to 1.6.
The same measure, in the same setting: in the case of B8 it was 1.2; in that of B9, 0.9.
Same read-out and setting: in the case of B10 it was 1.
The molecule B11 gave a kd var/kd wt of 1.7.
Same read-out and setting: in the case of B12 it was 0.7; in that of B13, 1.5.
Same read-out and setting: in the case of B14 it was 1.8; in that of B15, 1.1.
B16 yielded a kd var/kd wt of 1.7.
Still for that read-out and setting: in the case of B17 it was 0.7.
Consider B18, for which the kd var/kd wt amounted to 1.4.
On the same count and under the same terms, with B19 the figure was 1.1.
On the same count and under the same terms, in the case of B20 it was 1.6; in that of B21, 1.3; in that of B22, 1.4.
On the same count and under the same terms, with B23 the figure was 1.5.
With B24, the kd var/kd wt came out at 1.1.
On the same count and under the same terms, with B25 the figure was 1.7; with B26, 1.5.
On the same count and under the same terms, with B27 the figure was 5.1.

In another test the target is T3, human TGFβ1 (human, UniProt P01137 279-390).
T3 construct: also called TGFβ1 homodimer
T3 sequence (P01137 279-390 limits assumed): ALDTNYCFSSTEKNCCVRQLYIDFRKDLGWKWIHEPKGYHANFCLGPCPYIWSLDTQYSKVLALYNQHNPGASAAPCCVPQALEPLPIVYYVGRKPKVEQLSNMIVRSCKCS
Nature of the test: Biacore off-rate vs wt GC1008, 50 nM.
Description: as §1
As to B1, the kd var/kd wt amounted to 1.2.
On the same count and under the same terms, with B2 the figure was 1.5; with B3, 1.
Still for that read-out and setting: in the case of B4 it was 1.4.
Molecule B5 returned a kd var/kd wt of 1.
The same measure, in the same setting: in the case of B6 it was 1.3.
Still for that read-out and setting: with B7 the figure was 1.2.
B8 displayed a kd var/kd wt of 1.3.
The same measure, in the same setting: with B9 the figure was 0.9; with B10, 1.2; with B11, 2.3.
The same measure, in the same setting: in the case of B12 it was 0.8.
On the same count and under the same terms, in the case of B13 it was 1.3; in that of B14, 1.3; in that of B15, 1.9.
The molecule B16 gave a kd var/kd wt of 1.6.
On the same count and under the same terms, in the case of B17 it was 1.
Molecule B18 registered a kd var/kd wt of 2.
On the same count and under the same terms, with B19 the figure was 1.5; with B20, 1.5; with B21, 4.3.
Same read-out and setting: with B22 the figure was 1.5; with B23, 1.3; with B24, 1.4.
The molecule B25 came in with a kd var/kd wt of 2.1.
In turn, B26 gave a kd var/kd wt of 2.4.
On the same count and under the same terms, with B27 the figure was 4.7.
